Experiments:
[1] = molecular target: myosin S2Δ, the first 126 amino acids of myosin sub-fragment 2 (rat heart) (rat); assay: MST; as a2 (pH 7, 50 mmol/liter KCl); 25 °C
[2] = molecular target: myosin S2Δ, the first 126 amino acids of myosin sub-fragment 2 (rat heart) (rat); assay: MST; as a2 (pH 7, 50 mmol/liter KCl); 30 °C
[3] = molecular target: myosin S2Δ, the first 126 amino acids of myosin sub-fragment 2 (rat heart) (rat); assay: MST; Monolith NT.115; 100 nmol/liter Alexa 647–myosin S2Δ fixed, cMyBP-C construct titrated; 20 mmol/liter MOPS pH 7, 1 mmol/liter EDTA, 50 mmol/liter KCl, 1 mmol/liter DTT, 0.05% Tween 20; 21 °C
[4] = molecular target: isolated native thin filaments (UniProt P68032)
[5] = molecular target: myosin S2Δ, the first 126 amino acids of myosin sub-fragment 2 (rat heart) (rat); assay: MST; as a2 (pH 7, 50 mmol/liter KCl); biphasic binding curve of Fig. S3, the temperature of the curve is not given
[6] = molecular target: isolated native thin filaments (UniProt P68032); assay: co-sedimentation; high-velocity co-sedimentation of C1mC2 constructs with isolated native thin filaments; performed as described in ref. 15
[7] = molecular target: myosin S2Δ, the first 126 amino acids of myosin sub-fragment 2 (rat heart) (rat); assay: MST; as a2 but 180 mmol/liter KCl; pH 7; 30 °C

| Substance | Kd [1] [µM] | Kd [2] [µM] | Kd [3] [µM] | isometric force of demembranated rat ventricular trabeculae in relaxing solution (pCa 9) with 40 μmol/liter C1mC2, as percent of that during full Ca2+ activation [4] [%] | Kd of the additional low-affinity binding interaction [5] [µM] | Kd [6] [µM] | Kd [7] [µM] |
| --- | --- | --- | --- | --- | --- | --- | --- |
| C1mC2, unphosphorylated N-terminal fragment of rat cardiac myosin-binding protein-C containing the Ig-domains C1 and C2 and the intervening m-domain (domain or fragment) | 58.5 | 21.3 | 106 | 57 | 400 | 23 | 364 |
| PKA tris-phosphorylated C1mC2 of rat cardiac myosin-binding protein-C (domain or fragment) |  |  |  |  |  | 57 |  |
